For one substance, Kd and intercept of the linear regression of 1/Binding RU against 1/[TβRII] results are on record in US20110165623A1.

pKd: −log10 of the molar value.

The target in assay [1] is purified recombinant mature TGFβ1 (expressed in CHO cells from the modified porcine TGFβ1 cDNA) (porcine) (UniProt P07200). In words: SPR (BIAcore 3000); TGFβ1 immobilised on a CM5 chip, TβRII 150 nM to 0.6 nM as analyte; steady state, linear regression of 1/Response versus 1/C; TGFβ1 immobilised on the chip, TβRII as analyte; steady state.
For assay [2] the target is unchanged. In words: surface plasmon resonance, steady state response, double reciprocal plot; x axis printed as 1/[TβRII] (µM-1), y axis 1/Binding RU.

Chain of UniProt P07200 (P07200 279-390): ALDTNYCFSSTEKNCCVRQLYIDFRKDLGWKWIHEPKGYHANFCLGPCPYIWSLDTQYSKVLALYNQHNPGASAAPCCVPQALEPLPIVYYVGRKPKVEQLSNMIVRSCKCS

On to “TGFβ1 type II receptor (residues 22-136), refolded from inclusion bodies (from UniProt P37173 45-159)”, for which, in assay [1], the pKd is 7.26. Moreover, the intercept of the linear regression of 1/Binding RU against 1/[TβRII] in assay [2] stood at 0.00102.
